In the supplement of paper PMC9112550, “Optimization of the antimicrobial peptide Bac7 by deep mutational scanning” (BMC Biology, 2022):

Tested on: Escherichia coli TOP10
Experiment: shrunken log2 fold change of peptide-encoding DNA abundance (4.5 h post-induction vs induction); higher = less antimicrobial activity (less host growth inhibition)
Conditions: time post-induction: 4.5 h; library: site-saturation at positions 5, 18, 19, 20
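Further: peptides expressed intracellularly from a pBAD plasmid library in pooled LB shake-flask culture, induced with 0.3% L-arabinose, DNA abundance read by NGS, three biological replicates, DESeq2 with apeglm shrinkage.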

In order of rising “shrunken log2 fold change” value:
1. RRIRFRPPRLPRPRPRPWNTPRP  -1.19
2. RRIRQRPPRLPRPRPRPMGYPRP  -0.655
3. RRIRFRPPRLPRPRPRPHCPPRP  -0.629
4. RRIRERPPRLPRPRPRPIGSPRP  -0.587
5. RRIRCRPPRLPRPRPRPLYQPRP  -0.543
6. RRIRFRPPRLPRPRPRPQEYPRP  -0.541
7. RRIRLRPPRLPRPRPRPTFIPRP  -0.528
8. RRIRYRPPRLPRPRPRPHFFPRP  -0.518
9. RRIRMRPPRLPRPRPRPSWYPRP  -0.506
10. RRIRERPPRLPRPRPRPKHRPRP  -0.457
11. RRIRNRPPRLPRPRPRPHTHPRP  -0.438
12. RRIRSRPPRLPRPRPRPKNSPRP  -0.431
13. RRIRCRPPRLPRPRPRPITRPRP  -0.429
14. RRIRFRPPRLPRPRPRPPYTPRP  -0.419
15. RRIRYRPPRLPRPRPRPAILPRP  -0.402
16. RRIRLRPPRLPRPRPRPIMNPRP  -0.381
17. RRIRIRPPRLPRPRPRPWGDPRP  -0.38
18. RRIRYRPPRLPRPRPRPMKDPRP  -0.317
19. RRIRERPPRLPRPRPRPIYKPRP  -0.305
20. RRIRCRPPRLPRPRPRPSLRPRP  -0.305
21. RRIRTRPPRLPRPRPRPHYDPRP  -0.302
22. RRIRPRPPRLPRPRPRPMFHPRP  -0.289
23. RRIRCRPPRLPRPRPRPYKAPRP  -0.279
24. RRIRSRPPRLPRPRPRPKYCPRP  -0.263
25. RRIRWRPPRLPRPRPRPNTDPRP  -0.262
26. RRIRQRPPRLPRPRPRPYMEPRP  -0.26
27. RRIRIRPPRLPRPRPRPMMPPRP  -0.238
28. RRIRWRPPRLPRPRPRPFKPPRP  -0.231
29. RRIRVRPPRLPRPRPRPITNPRP  -0.219
30. RRIRCRPPRLPRPRPRPKKHPRP  -0.217
31. RRIRLRPPRLPRPRPRPRLMPRP  -0.197
32. RRIRCRPPRLPRPRPRPIQVPRP  -0.191
33. RRIRPRPPRLPRPRPRPCHRPRP  -0.181
34. RRIRSRPPRLPRPRPRPSMFPRP  -0.18
35. RRIRPRPPRLPRPRPRPSMEPRP  -0.157
36. RRIRLRPPRLPRPRPRPLSFPRP  -0.15
37. RRIRPRPPRLPRPRPRPRSIPRP  -0.149
38. RRIRQRPPRLPRPRPRPMCHPRP  -0.136
39. RRIRARPPRLPRPRPRPITLPRP  -0.13
40. RRIRFRPPRLPRPRPRPIKAPRP  -0.128
41. RRIRNRPPRLPRPRPRPGKPPRP  -0.117
42. RRIRSRPPRLPRPRPRPMTQPRP  -0.116
43. RRIRGRPPRLPRPRPRPFLYPRP  -0.11
44. RRIRIRPPRLPRPRPRPFGGPRP  -0.103
45. RRIRERPPRLPRPRPRPHYMPRP  -0.0919
46. RRIRSRPPRLPRPRPRPTKWPRP  -0.0872
47. RRIRVRPPRLPRPRPRPMILPRP  -0.0833
48. RRIRFRPPRLPRPRPRPLAIPRP  -0.0726
49. RRIRIRPPRLPRPRPRPIQVPRP  -0.071
50. RRIRERPPRLPRPRPRPQMVPRP  -0.0708
51. RRIRARPPRLPRPRPRPWVQPRP  -0.0652
52. RRIRIRPPRLPRPRPRPPDCPRP  -0.0639
53. RRIRNRPPRLPRPRPRPYTCPRP  -0.0637
54. RRIRRRPPRLPRPRPRPCELPRP  -0.0595
55. RRIRDRPPRLPRPRPRPNFHPRP  -0.0585
56. RRIRLRPPRLPRPRPRPKTLPRP  -0.0582
57. RRIRSRPPRLPRPRPRPWDGPRP  -0.0512
58. RRIRRRPPRLPRPRPRPIPIPRP  -0.0501
59. RRIRQRPPRLPRPRPRPFEYPRP  -0.0368
60. RRIRNRPPRLPRPRPRPCLNPRP  -0.0299
61. RRIRHRPPRLPRPRPRPEQPPRP  -0.0288
62. RRIRCRPPRLPRPRPRPHGSPRP  -0.0281
63. RRIRLRPPRLPRPRPRPDLLPRP  -0.0261
64. RRIRYRPPRLPRPRPRPQPKPRP  -0.0232
65. RRIRWRPPRLPRPRPRPIPCPRP  -0.0198
66. RRIRVRPPRLPRPRPRPQEWPRP  -0.0187
67. RRIRNRPPRLPRPRPRPPQNPRP  -0.0172
68. RRIRDRPPRLPRPRPRPPMLPRP  -0.0165
69. RRIRWRPPRLPRPRPRPCGSPRP  -0.0157
70. RRIRERPPRLPRPRPRPHVCPRP  -0.0153
71. RRIRSRPPRLPRPRPRPFQHPRP  -0.0131
72. RRIRKRPPRLPRPRPRPCRSPRP  -0.0126
73. RRIRTRPPRLPRPRPRPLWDPRP  -0.0109
74. RRIRCRPPRLPRPRPRPEWWPRP  -0.00726
75. RRIRYRPPRLPRPRPRPNVGPRP  -0.00664
76. RRIRTRPPRLPRPRPRPYTSPRP  -0.00661
77. RRIRWRPPRLPRPRPRPHMCPRP  -0.00659
78. RRIRIRPPRLPRPRPRPKGVPRP  -0.00153
79. RRIRQRPPRLPRPRPRPCARPRP  -0.0014
80. RRIRHRPPRLPRPRPRPNDCPRP  0.000576
81. RRIRLRPPRLPRPRPRPRYAPRP  0.00198
82. RRIRIRPPRLPRPRPRPSLAPRP  0.0113
83. RRIRARPPRLPRPRPRPRDFPRP  0.0137
84. RRIRFRPPRLPRPRPRPENFPRP  0.0164
85. RRIRQRPPRLPRPRPRPQEAPRP  0.0238
86. RRIRIRPPRLPRPRPRPECHPRP  0.0255
87. RRIRDRPPRLPRPRPRPPFHPRP  0.0293
88. RRIRGRPPRLPRPRPRPWKWPRP  0.0325
89. RRIRKRPPRLPRPRPRPFWKPRP  0.0342
90. RRIRWRPPRLPRPRPRPTCRPRP  0.0452
91. RRIRHRPPRLPRPRPRPAHSPRP  0.0457
92. RRIRTRPPRLPRPRPRPWQSPRP  0.0475
93. RRIRHRPPRLPRPRPRPPPFPRP  0.0505
94. RRIRSRPPRLPRPRPRPVHFPRP  0.0527
95. RRIRARPPRLPRPRPRPFLCPRP  0.0599
96. RRIRARPPRLPRPRPRPIESPRP  0.0614
97. RRIRGRPPRLPRPRPRPNEVPRP  0.0747
98. RRIRDRPPRLPRPRPRPMFWPRP  0.0751
99. RRIRSRPPRLPRPRPRPWTMPRP  0.0795
100. RRIRARPPRLPRPRPRPDLLPRP  0.0805
101. RRIRARPPRLPRPRPRPDKDPRP  0.083
102. RRIRFRPPRLPRPRPRPQSQPRP  0.0846
103. RRIRWRPPRLPRPRPRPKHSPRP  0.0898
104. RRIRNRPPRLPRPRPRPAEGPRP  0.0922
105. RRIRTRPPRLPRPRPRPGVIPRP  0.0978
106. RRIRQRPPRLPRPRPRPLDWPRP  0.099
107. RRIRGRPPRLPRPRPRPHRHPRP  0.107
108. RRIRGRPPRLPRPRPRPSWQPRP  0.109
109. RRIRPRPPRLPRPRPRPLIAPRP  0.113
110. RRIRGRPPRLPRPRPRPNLFPRP  0.129
111. RRIRKRPPRLPRPRPRPKLHPRP  0.129
112. RRIRVRPPRLPRPRPRPWPFPRP  0.14
113. RRIRARPPRLPRPRPRPMYDPRP  0.15
114. RRIRNRPPRLPRPRPRPPSQPRP  0.16
115. RRIRIRPPRLPRPRPRPALLPRP  0.178
116. RRIRKRPPRLPRPRPRPGDFPRP  0.18
117. RRIRARPPRLPRPRPRPTITPRP  0.187
118. RRIRQRPPRLPRPRPRPSCWPRP  0.188
119. RRIRCRPPRLPRPRPRPWFWPRP  0.189
120. RRIRTRPPRLPRPRPRPVCEPRP  0.243
121. RRIRPRPPRLPRPRPRPMSWPRP  0.245
122. RRIRARPPRLPRPRPRPAKWPRP  0.273
123. RRIRSRPPRLPRPRPRPESAPRP  0.278
124. RRIRHRPPRLPRPRPRPAPYPRP  0.296
125. RRIRTRPPRLPRPRPRPTWGPRP  0.31
126. RRIRQRPPRLPRPRPRPTLSPRP  0.322
127. RRIRGRPPRLPRPRPRPTTGPRP  0.418
128. RRIRRRPPRLPRPRPRPSLPPRP  0.44
129. RRIRKRPPRLPRPRPRPENKPRP  0.528
130. RRIRWRPPRLPRPRPRPTQGPRP  0.533
131. RRIRNRPPRLPRPRPRPPERPRP  0.537
132. RRIRTRPPRLPRPRPRPPDQPRP  0.601
133. RRIRGRPPRLPRPRPRPQMFPRP  0.612
134. RRIRWRPPRLPRPRPRPGMVPRP  0.628
135. RRIRKRPPRLPRPRPRPAPGPRP  0.637
136. RRIRGRPPRLPRPRPRPRLHPRP  0.653
137. RRIRCRPPRLPRPRPRPRWPPRP  0.661
138. RRIRGRPPRLPRPRPRPDVIPRP  0.68
139. RRIRMRPPRLPRPRPRPTGWPRP  0.687
140. RRIRARPPRLPRPRPRPACVPRP  0.707
141. RRIRARPPRLPRPRPRPPEGPRP  0.783
142. RRIRERPPRLPRPRPRPGRWPRP  0.796
143. RRIRCRPPRLPRPRPRPAAEPRP  0.829
144. RRIRGRPPRLPRPRPRPTIWPRP  0.872
145. RRIRARPPRLPRPRPRPECCPRP  0.996
146. RRIRGRPPRLPRPRPRPGAGPRP  1.05
147. RRIRMRPPRLPRPRPRPEQHPRP  1.06
148. RRIRQRPPRLPRPRPRPPSDPRP  1.18
149. RRIRARPPRLPRPRPRPELMPRP  1.19
150. RRIRGRPPRLPRPRPRPEILPRP  1.22
